{"source": "patent US8691225B2", "about": "“Antibodies against the ectodomain of ErbB3 and uses thereof” (Merrimack Pharmaceuticals, Inc., priority 2007, dated 2014)", "key": {"[1]": {"system": "MCF-7 cells", "test": "trans-well cell migration assay", "assay_type": "cell-based, human", "details": "8 uM Ab #6, 10% FBS chemoattractant, 16 hours", "protocol": "The cells are then transferred to an upper chamber that is separated from a lower chamber by a collagen type I-coated membrane through which the cells can migrate. […] The chambers are incubated at 37° C. for 16 hours and then the cells that migrate through the membrane into the lower chamber are removed using a detachment buffer and incubated with a cell-binding fluorescent dye. Fluorescence is quantitated using a fluorescent plate reader."}, "[2]": {"test": "PK analyses of serum and intra-tumoral levels from xenograft studies", "assay_type": "in vivo, mouse", "details": "serum from animals of the xenograft studies", "from_the_text": "The data (obtained using the methods described above or minor variations thereof) from three different models derived from human tumor cell lines, AdrR (ovarian), Du145 (prostate) and OvCAR8 (ovarian) data are shown in FIGS. 17A-C and Colo357 (pancreatic) xenograft study data are shown in FIG. 17D."}, "[3]": {"molecular_target": "T1, ErbB3 in AdrR xenografts (Homo sapiens, UniProt P21860)", "T1 construct": "host or cells: AdrR (NCI/AdrR) ovarian cancer cells", "test": "total ErbB3 in AdrR xenografts in vivo by ELISA", "parameters": "species or system mouse", "protocol": "Briefly, the samples were pulverized in a cryopulverizer (Covaris Inc). Tumors were stored in special bags (pre-weighed before the addition of the tumor) and placed in liquid nitrogen while handling them. For small tumors, 200 μL of Lysis buffer was first added to the bag with the tumor, frozen in liquid nitrogen and then pulverized to improve the recovery of the tumor from the bag. Pulverized tumors were transferred to 2 ml EPPENDORF tubes and placed in liquid nitrogen until lysed. Tumors were lysed in Lysis buffer supplemented with protease and phosphatase inhibitors. Lysis Buffer was added to the tumor aliquots in a final concentration of 62.5 mg/ml. Tumor samples were homogenized by vortexing for 30 seconds and letting them sit on ice for 30 min. The lysates were spun for 10 minutes in QIAGEN […] columns for further homogenization of the samples. Cleared lysates were aliquoted into fresh tubes.\nThe BCA assay is performed as set forth substantially as described in the materials and methods section supra.\nThe total levels of ErbB3 were determined by ELISA. The ELISA reagents were purchased from R&D Systems as DUOSET kits. […] Fifty microliters of SUPERSIGNAL ELISA Pico substrate was added and readout was performed on a Fusion plate reader. Data was analyzed using Microsoft EXCEL. […]"}, "[4]": {"system": "Colo357 (pancreatic) xenograft", "test": "xenograft tumor growth in nude mice", "assay_type": "in vivo, mouse"}, "[5]": {"system": "Du145 (prostate) xenograft", "test": "xenograft tumor growth in nude mice", "assay_type": "in vivo, mouse"}, "[6]": {"molecular_target": "T2, ErbB2/3 complex in AdrR cells (Homo sapiens, UniProt P21860)", "T2 construct": "host or cells: AdrR ovarian cancer cells", "test": "ErbB2-ErbB3 protein complex formation (immunoprecipitation, blot)", "assay_type": "cell-based", "details": "250 nM Ab #6, 10 nM HRG", "protocol": "The cells are lysed in 25 mM Tris, pH+7.5, 150 mM NaCl, 1 mM EDTA, 1.0% Triton X-100, 1.0% CHAPS, 10% v/v glycerol, containing 0.2 mM PMSF, 50 mTU/mL aprotinin, and 100 uM leupeptin, and the crude lysate are centrifuged briefly to remove insoluble material. Supernatant is transferred to a new EPPENDORF tube, and anti-ErbB3 antibody (Santa Cruz sc-285) is added at 1:500 dilution. Supernatants are incubated overnight with gentle shaking at 4 C. 60 ul of Immobilized Protein A/G agarose beads (Pierce, Rockford, Ill., #20421) is first washed with 1× PBS. The cell lysate-antibody mixture is added to the PBS washed beads, and incubated for 2 hours with gentle shaking at 4° C. The immunoprecipitates are then washed with ice-cold lysis buffer 3 times, resuspended in 30 ul of 2× SDS sample buffer, heat denatured at 95° C. for 7 minutes and run on 4-12% Bis-Tris Gels. SDS-PAGE and electro-transferred to PVDF membrane in Tri-Glycine buffer with 10% MeOH. […] The signal is detected using goat anti-rabbit IRDye800® infrared fluorescent dye-conjugated secondary antibody at 1:5000 (2 ul) in 10 ml of blocking buffer (Li-Cor Biosciences, #927-40000)."}, "[7]": {"details": "300 ug every three days (Q3d), p<0.05"}}}
{"molecule": "Ab #6: human anti-ErbB3 antibody from Fab-phage library, CDRs SEQ ID NOs:7-12; used as IgG1 and IgG2 isotypes; in phase I trials as MM-121 (antibody, V domains shown) VH: EVQLLESGGGLVQPGGSLRLSCAASGFTFSHYVMAWVRQAPGKGLEWVSSISSSGGWTLYADSVKGRFTISRDNSKNTLYLQMNSLRAEDTAVYYCTRGLKMATIFDYWGQGTLVTVSS VL: QSALTQPASVSGSPGQSITISCTGTSSDVGSYNVVSWYQQHPGKAPKLIIYEVSQRPSGVSNRFSGSKSGNTASLTISGLQTEDEADYYCCSYAGSSIFVIFGGGTKVTVL", "values": [{"measurement": "inhibition of FBS induced cell migration", "setting": "[1]", "result": "inhibits the FBS induced cell migration"}, {"measurement": "serum retention", "setting": "[2]", "result": "dose-dependent increase in the serum retention"}, {"measurement": "downregulation of ErbB3 in xenografts", "setting": "[3]", "result": "downregulated ErbB3"}, {"measurement": "inhibition of tumor growth", "setting": "[4]; [7]", "result": "significant inhibition of tumor growth"}, {"measurement": "inhibition of tumor growth", "setting": "[4]; 600 ug Q3d versus 300 ug", "result": "further elevated"}, {"measurement": "inhibition of tumor growth", "setting": "[4]; 1500 ug Q3d versus 600 ug", "result": "did not result in increased efficacy"}, {"measurement": "inhibition of tumor growth", "setting": "[5]; [7]", "result": "significant inhibition of tumor growth"}, {"measurement": "inhibition of tumor growth", "setting": "[5]; 600 ug Q3d versus 300 ug", "result": "further elevated"}, {"measurement": "inhibition of HRG stimulated ErbB2/3 complex formation", "setting": "[6]", "result": "completely inhibit HRG stimulated ErbB2/3 complex formation"}]}
